Data on one molecule can be found in publication PMC12519199, “Molecular basis of SARS-CoV-2 proofreading enzyme–mediated resistance to remdesivir”.

For the series, the target named is nsp12 (RdRp catalytic subunit);nsp7;nsp8 (SARS-CoV-2;SARS-CoV-2;SARS-CoV-2, UniProt P0DTD1;P0DTD1;P0DTD1 4393-5324;3860-3942;3943-4140, ||). In words: fluorescence polarization; higher affinity than T20P14-R. The settings on record: protein: recombinant;recombinant;recombinant; tags: His6-Smt3 removed by Ulp1;His6-Smt3 removed by Ulp1;His6-Smt3 removed by Ulp1; copies: 1;1;2; label: 5'-FAM (FP); hairpin, UUCG loop, 5' overhang 5 nt. (Fluorescence polarisation rises when a labelled molecule tumbles more slowly, as on binding a larger partner.)

On to GGGAAUGGGAUUUUAAUAGCUUCGGCUAUUAAAAUCCCA (structured_RNA) [T20P14-A], for which the binding result is reported as “binds”.
